# Measured values as given in patent US7943296B2, “Methods of screening using a natriuretic peptide receptor” (Oregon Health & Science University, priority 2005, dated 2011).
# Key:
# full-length NPRA = target: T1, full-length NPRA (Homo sapiens, UniProt P16066); assay: Association of NPRA fragment with full-length NPRA; format: binding; settings: in the presence or absence of activated PKG
# T1 sequence (P16066 33-1061): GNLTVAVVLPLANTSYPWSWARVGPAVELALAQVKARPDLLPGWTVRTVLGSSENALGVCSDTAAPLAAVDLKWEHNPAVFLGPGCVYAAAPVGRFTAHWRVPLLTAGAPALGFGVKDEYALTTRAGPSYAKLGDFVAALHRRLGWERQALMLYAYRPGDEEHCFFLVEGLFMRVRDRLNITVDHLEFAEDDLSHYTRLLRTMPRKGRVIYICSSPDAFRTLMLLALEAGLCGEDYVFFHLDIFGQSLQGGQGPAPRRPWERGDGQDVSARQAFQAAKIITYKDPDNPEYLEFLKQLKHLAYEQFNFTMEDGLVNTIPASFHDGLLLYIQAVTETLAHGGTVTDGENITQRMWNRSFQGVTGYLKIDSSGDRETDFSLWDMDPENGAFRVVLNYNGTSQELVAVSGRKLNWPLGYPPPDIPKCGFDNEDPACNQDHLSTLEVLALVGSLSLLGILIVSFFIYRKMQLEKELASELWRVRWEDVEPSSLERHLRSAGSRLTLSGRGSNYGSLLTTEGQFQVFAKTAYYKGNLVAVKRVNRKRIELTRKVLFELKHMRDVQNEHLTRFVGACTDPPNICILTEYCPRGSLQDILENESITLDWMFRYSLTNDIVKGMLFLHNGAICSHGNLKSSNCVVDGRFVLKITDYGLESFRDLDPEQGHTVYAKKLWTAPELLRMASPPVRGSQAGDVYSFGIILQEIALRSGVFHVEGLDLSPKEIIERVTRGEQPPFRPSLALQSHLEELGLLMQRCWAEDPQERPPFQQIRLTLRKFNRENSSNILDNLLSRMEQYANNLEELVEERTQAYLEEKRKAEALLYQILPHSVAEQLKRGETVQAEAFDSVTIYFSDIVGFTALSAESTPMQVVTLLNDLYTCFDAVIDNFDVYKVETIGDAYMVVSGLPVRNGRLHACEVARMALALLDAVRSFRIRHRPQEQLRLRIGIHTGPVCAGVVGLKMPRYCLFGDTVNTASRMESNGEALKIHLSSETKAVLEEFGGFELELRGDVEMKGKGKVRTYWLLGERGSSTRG
# [1] = test system: cardiac fibroblasts (CFs); assay: Vimentin localisation in CFs by immunofluorescence microscopy; format: cell-based, rat; settings: fragment expressed
# Protocol: NP's ability to inhibit growth factor-induced CF differentiation into myofibroblasts was determined as follows. CFs were transiently transfected with insertless pcDNA3 vector or pcDNA3 encoding sNRF^(806-900) (see Example 7). The transfected CFs were then treated for 48 hours with 10 ng/ml basic fibroblast growth factor (FGF; Sigma-Aldrich #F0291) in the presence or absence of 100 nM ANP. Alpha-smooth muscle actin (α-SMA) protein expression, the principal marker of CF differentiation, was assessed by Western blotting and immunofluorescence microscopy. Vimentin staining was used as a loading control because it is expressed equally in fibroblasts and transdifferentiated myofibroblasts.
# For the immunofluorescence microscopy, slide wells were treated as described in Example 7 and incubated with anti-α-SMA and anti-vimentin antibody as well as phalloidin to stain for actin. Briefly, cells were rinsed twice with phosphate-buffered saline (PBS) and fixed with 3.7% formaldehyde in PBS for 10 minutes. After fixation, cells were rinsed with PBS and permeabilized with 0.3% Triton X-100 in PBS for 10 minutes and blocked for 1 hour in 1% horse serum, 0.2% bovine serum albumin in PBS. Cells were then incubated with primary α-SMA antibody (ABCAM ab7817) and primary vimentin antibody (ABCAM ab7783) diluted in blocking solution for 1 hour and washed three times with blocking solution for 5 minutes. […]
substance,measurement,setting,value
"sNRF^(806-900): intracellular NPRA fragment, residues 806-900, excludes the cyclase-containing domain; shortest fragment observed to associate with PKG",association with full-length NPRA,full-length NPRA,failed to associate with full-length NPRA
same,ANP-associated nuclear to cytosolic translocation of vimentin,[1],inhibited
